Source: US20230042465A1 (Janssen / Centocor, published 2023)

Legend:
recombinant human TNFα [1] = target: T1, recombinant human TNFα (human, UniProt P01375 77-233, 125I-labeled in the receptor binding assay); test: cell-based or functional assay
recombinant human TNFα [2] = target: T1, recombinant human TNFα; test: competition radioligand assay: mAb in hybridoma supernatant preincubated with 5 ng/ml 125I-TNFα, then 125I-TNFα bound to plate-coated p55-sf2 counted as cpm
Method: The amount of TNFα that bound to the p55 receptor in the presence of the mAbs was determined after washing away the unbound material and counting using a gamma counter. […] Each sample was tested in duplicate. The results shown are representative of two independent experiments.
(§1) 50:l of p55-sf2 at 0.5:g/ml in PBS was added to Optiplates to coat the wells during a one-hour incubation at 37° C. Serial dilutions of the eight TNV cell supernatants were prepared in 96-well round-bottom plates using PBS/0.1% BSA as diluent. […] The mixture was preincubated for one hour at RT. The coated Optiplates were washed to remove unbound p55-sf2 and 50:l of the ¹²⁵I-TNFα/cell supernatant mixture was transferred to the Optiplates. After 2 hrs at RT, Optiplates were washed three times with PBS-Tween. 100:l of Microscint-20 was added and the cpm bound determined using the TopCount gamma counter.
A simple binding assay was done to determine whether the eight TNV mAbs contained in hybridoma cell supernatant were capable of blocking TNFα binding to receptor.

recombinant human TNFα [3] = target: T1, recombinant human TNFα; test: inhibition of 125I-TNFα binding to plate-coated p55-sf2, hybridoma supernatant
Method: as §1
A simple binding assay was done to determine whether the eight TNV mAbs contained in hybridoma cell supernatant were capable of blocking TNFα binding to receptor. The concentrations of the TNV mAbs in their respective cell supernatants were first determined by standard ELISA analysis for human IgG.

human lymphotoxin = target: T2, human lymphotoxin (human, UniProt P01374 35-205, limits assumed); test: not described
T2 sequence (looked up): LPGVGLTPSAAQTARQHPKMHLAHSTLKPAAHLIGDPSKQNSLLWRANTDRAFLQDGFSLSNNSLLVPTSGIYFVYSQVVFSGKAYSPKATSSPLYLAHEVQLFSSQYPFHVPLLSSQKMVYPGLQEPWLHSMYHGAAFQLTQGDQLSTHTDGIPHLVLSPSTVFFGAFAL

Binder	neutralizing TNFα bioactivity (recombinant human TNFα [1])	IC50 (read off the curve) (recombinant human TNFα [2])	fold better at blocking TNF binding than TNV118 and TNV14 (recombinant human TNFα [3])	binding result (human lymphotoxin)
TNV148 (antibody, human IgG1, kappa, V domains shown, also called GenTNV148.26.12; C420A) VH: QVQLVESGGGVVQPGRSLRLSCAASGFIFSSYAMHWVRQAPGNGLEWVAFMSYDGSNKKYADSVKGRFTISRDNPKNTLYLQMNSLRAEDTAVYYCARDRGIAAGGNYYYYGMDVWGQGTTVTVSS VL: EIVLTQSPATLSLSPGERATLSCRASQSVYSYLAWYQQKPGQAPRLLIYDASNRATGIPARFSGSGSGTDFTLTISSLEPEDFAVYYCQQRSNWPPFTFGPGTKVDIKR	4 fold	~4 ng/mL	~4 fold	
TNV86 (antibody, V domains shown, Hybridoma IgG1 kappa; also called GenTNV86.14.34; C417A) VH: QVQLVESGGGVVQPGRSLRLSCAASGFIFSSYAMHWVRQAPGNGLEWVAFMSYDGSNKKYADSVKGRFTISRDNPKNTLYLQMNSLRAEDTAVYYCARDRGIAAGGNYYYYGMDVWGQGTTVTVSS VL: EIVLTQSPATLSLSPGERATLSCRASQSVYSYLAWYQQKPGQAPRLLIYDASNRATGIPARFSGSGSGTDFTLTISSLEPEDFAVYYCQQRSNWPPFTFGPGTKVDIKR			~4 fold	
golimumab (SIMPONI) (antibody, human IgG1, kappa, V domains shown, N-glycosylated on asparagine 306, also called rTNV148B) VH: QVQLVESGGGVVQPGRSLRLSCAASGFIFSSYAMHWVRQAPGNGLEWVAFMSYDGSNKKYADSVKGRFTISRDNSKNTLYLQMNSLRAEDTAVYYCARDRGIAAGGNYYYYGMDVWGQGTTVTVSS VL: EIVLTQSPATLSLSPGERATLSCRASQSVYSYLAWYQQKPGQAPRLLIYDASNRATGIPARFSGSGSGTDFTLTISSLEPEDFAVYYCQQRSNWPPFTFGPGTKVDIKR				no binding
